Assay results published in patent publication US20240075105A1.

Target: the cell surface receptor (of interleukin-2) on CTLL-2 cells
Assay: cell-based or functional assay

Row | specific bioactivity (CTLL-2 cell/MTT colorimetry) | Substance
1 | 2.46e+06 IU/mg | recombinant human serum albumin/interleukin-2 fusion protein (rHSA/IL-2, code 9222) (ligand)
2 | 2.39e+06 IU/mg | recombinant human interleukin-2/serum albumin fusion protein (rhIL-2/SA, code 9333) (ligand)
